Results: patent US20250197490A1 (HBM ALPHA THERAPEUTICS, published 2025)

Legend:
[1] = molecular target: T1, human UCN1 peptide, biotinylated (human, UniProt P55089 83-122, biotin at N- or C-terminus); test: ELISA, hUCN1 (CT biotin)
T1 construct: also called hUCN1 (NT Biotin); hUCN1 (CT Biotin)
T1 peptide (looked up): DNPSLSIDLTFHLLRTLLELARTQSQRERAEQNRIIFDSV
Procedure: (§1) Streptavidin (Thermo, Cat: 21125) was diluted in PBS to a concentration of 2 μg/ml. 100 μl of diluted streptavidin was added per well to ELISA microplates, and the plates were incubated overnight at 4° C. […] Subsequently, plates were washed and incubated with HRP-conjugated goat anti-human IgG (H+L) antibody (Jackson, Cat: 109-035-088) at 37° C. for 1 hour. 100 μL of 3,3′,5,5′-tetramethylbenzidine (TMB) substrate (Biopanda, Cat: TMB-S-003) was added, and the plates were incubated at room temperature for 15 minutes. 100 μL of ELISA stopping solution (Solarbio, Cat #: C1058) was added to terminate the reaction, and the optical density at 450 nm (OD450 nm) was determined by an ELISA plate reader (Molecular Devices, Spectra max 384 plus).

biotinylated CRH [2] = molecular target: T2, biotinylated CRH (human and mouse, UniProt P01143 145-185 (rat entry), not fully specified; biotin; which end is not stated for the result (NT-biotin and CT-biotin forms were used)); test: ELISA, CRH (CT biotin)
T2 construct: also called biotin-CRH; CRH (NT biotin)
T2 peptide: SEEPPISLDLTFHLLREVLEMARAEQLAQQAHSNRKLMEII
Procedure: as §1

[3] = molecular target: T3, corticotropin-releasing hormone (CRH) peptide (human and mouse, UniProt P01143 145-185 (rat entry), not fully specified); test: cell-based or functional assay
T3 peptide: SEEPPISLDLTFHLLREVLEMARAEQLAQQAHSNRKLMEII

[4] = molecular target: T4, CRH (C-Terminal Region, NT Biotin) (N-terminal Biotin-K; C-terminal NH2); test: ELISA, CRH C-terminal region peptide (NT biotin)
T4 construct: central region plus C-terminal region of CRH; also called C-Terminal CRH; C-Ter-CRH
T4 peptide: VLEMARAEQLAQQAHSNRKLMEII
Procedure: as §1

[5] = molecular target: T5, human UCN2 peptide, biotinylated (human, UniProt Q96RP3 72-109, limits assumed, biotin at N- or C-terminus); test: ELISA, hUCN2 (NT biotin) and (CT biotin)
T5 construct: also called hUCN2 (NT Biotin); hUCN2 (CT Biotin)
T5 peptide (looked up): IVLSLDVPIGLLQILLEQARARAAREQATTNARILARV
Procedure: (§2) Streptavidin (Thermo, Cat: 21125) was diluted in PBS with a concentration of 2 μg/mL. 100 μL of diluted streptavidin was added per well to ELISA microplates, and the plates were incubated overnight at 4° C. Plates were blocked with ELISA blocking solution (containing 2% w/v BSA, 0.05% (v/v) Tween-20, pH 7.4 PBS buffer) at 37° C. for 1 hour, and then incubated with either 1 μg/mL hUCN1 (NT Biotin), hUCN1 (CT Biotin), hUCN2 (NT Biotin), hUCN2 (CT Biotin), hUCN3 (NT Biotin), or hUCN3 (CT Biotin) for 1 hour at 37° C. […] Plates were subsequently washed and incubated with HRP-conjugated goat anti-human IgG (H+L) antibody (Jackson, Cat: 109-035-088) at 37° C. for 1 hour. 100 μl of TMB Substrate (Biopanda, Cat: TMB-S-003) was added, and the plates were incubated at room temperature for 15 minutes. 100 μL of ELISA stopping solution (Solarbio, Cat #: C1058) was then added to terminate the reaction, and the OD450 nm was determined by an ELISA plate reader (Molecular Devices, Spectra max 384 plus).

[6] = molecular target: T6, CRH (Central Region, NT Biotin) (N-terminal Biotin-K; C-terminal NH2); test: ELISA, CRH central region peptide (NT biotin)
T6 construct: also called Central CRH
T6 peptide: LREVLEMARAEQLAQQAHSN
Procedure: as §1

biotinylated CRH [7] = molecular target: T2, biotinylated CRH; test: ELISA, CRH (NT biotin)
Procedure: as §1

[8] = molecular target: T7, N-Terminal CRH peptide (N-terminal region plus central region, CT biotin) (human and mouse, C-terminal K-Biotin); test: ELISA, N-Ter-CRH (CT-biotin) on streptavidin
T7 construct: also called N-Ter-CRH
T7 peptide: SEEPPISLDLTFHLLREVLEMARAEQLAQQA
Procedure: as §1

[9] = molecular target: T8, human UCN3 peptide, biotinylated (human, UniProt Q969E3 120-157, biotin at N- or C-terminus); test: ELISA, hUCN3 (NT biotin) and (CT biotin)
T8 construct: also called hUCN3 (NT Biotin); hUCN3 (CT Biotin)
T8 peptide (looked up): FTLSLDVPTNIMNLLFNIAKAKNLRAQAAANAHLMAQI
Procedure: as §2

[10] = molecular target: T1, human UCN1 peptide, biotinylated; test: ELISA, hUCN1 (NT biotin)
Procedure: as §1

[11] = molecular target: T9, CRH (Central Region, CT Biotin) (C-terminal K-Biotin); test: ELISA, CRH central region peptide (CT biotin)
T9 construct: also called Central CRH
T9 peptide: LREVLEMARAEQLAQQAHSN
Procedure: as §1

[12] = molecular target: T1, human UCN1 peptide, biotinylated; test: ELISA, hUCN1 (NT biotin) and (CT biotin), mAb at 100 and 10 nM
Procedure: as §2

[13] = molecular target: T3, corticotropin-releasing hormone (CRH) …; test: cell-based or functional assay
biotinylated CRH [14] = molecular target: T2, biotinylated CRH; test: ELISA, CRH (NT biotin)

B1: PR302064 (antibody, human IgG1, kappa, V domains shown)
VH: EMQLVESGGGLVKPGGSLRLSCAASGFTFSNYWMNWVRQAPGKGLEWVAEIRLKSNNYATHYAESVKGRFTISRDDSKSTVYLQMNSLKTEDTAVYYCTVGTLVYWGQGTLVTVSS
VL: DIVLTQSPDSLAVSLGERATINCRASQSVSTSTYNYMHWFQQKPGQPPKLLIKFASNLESGVPDRFSGSGSGTDFTLTISSLQAEDTAVYYCQHSWEIPYTFGQGTKLEIKR
With B1 the “EC50 (read off the curve)” value [1] was about 200 pM, the “EC50 (read off the curve)” value (biotinylated CRH [2]) was about 30 pM and the “unlabelled nM value (Table 5 matrix; likely hCRHR1-Luc IC50 as in Tables 6-8)” value [3] was 0.531 nM. B1: no binding (tested: 100 nM) [4]; no binding (tested: 100 nM) [5]; no binding (tested: 100 nM) [6]. For the same binder, the “EC50 (read off the curve)” value (biotinylated CRH [7]) was about 30 pM, the EC50 [8] was 22 pM and the binding result [9] was “no binding (tested: 100 nM)”. For the same binder, the “EC50 (read off the curve)” value [10] was about 100 pM and the binding result [11] was “no binding (tested: 100 nM)”.

B2: PR302341-34 (antibody, human IgG1, kappa, V domains shown)
VH: QVQLVQSGAEVKKPGASVKVSCKASGYTFTDYFMKWVRQAPGQGLEWMGVINPNQGDIFYNQKFKGRVTMTVDKSISTAYMELSRLRSDDTAVYYCARGTDRALFAYWGQGTLVTVSS
VL: DVVMTQSPLSLPVTLGQPASISCRSGQSIVHSDANTYLEWYQQRPGQSPRLLIYKVSNRFSGVPDRFSGSGSGTDFTLKISRVEAEDLGVYYCFQGSHIPWTFGGGTKVEIKR
For B2, the “EC50 (read off the curve)” value [1] was about 30 pM, the “EC50 (read off the curve)” value (biotinylated CRH [2]) was about 30 pM and the binding result [4] was “no binding (tested: 100 nM)”. For the same binder, the binding result [5] was “no binding (tested: 100 nM)”, the binding result [6] was “no binding (tested: 100 nM)” and the “EC50 (read off the curve)” value (biotinylated CRH [7]) was about 30 pM. The “EC50 (read off the curve)” value [10] was about 20 pM and the binding result [11] was “no binding (tested: 100 nM)”.

B3: PR302341-60 (antibody, human IgG1, kappa, V domains shown)
VH: QVQLVQSGAEVKKPGASVKVSCKASGYTFTDYFMKWVRQAPGQRLEWMGVINPNQGDIFYNQKFKGRVTITRDTSASTAYMELSSLRSEDTAVYYCARGTDRALFAYWGQGTLVTVSS
VL: DVVMTQSPLSLPVTLGQPASISCRSGQSIVHSDANTYLEWYQQRPGQSPRLLIYKVSNRFSGVPDRFSGSGSGTDFTLKISRVEAEDLGVYYCFQGSHIPWTFGGGTKVEIKR
B3: binds [12]; no binding (tested: 100 nM) [5].

B4: PR302341-48 (antibody, human IgG1, kappa, V domains shown)
VH: QVQLVQSGAEVKKPGASVKVSCKASGYTFTDYFMKWVRQAPGQGLEWMGVINPNQGDIFYNQKFKGRVTMTVDKSTSTAYMELSSLRSEDTAVYYCARGTDRALFAYWGQGTLVTVSS
VL: DVVMTQTPLSSPVTLGQPASISCRSGQSIVHSDANTYLEWYQQRPGQPPRLLIYKVSNRFSGVPDRFSGSGAGTDFTLKISRVEAEDLGVYYCFQGSHIPWTFGGGTKVEIKR
B4: binds [12]; no binding (tested: 100 nM) [5].

B5: PR302341-28 (antibody, human IgG1, kappa, V domains shown)
VH: QVQLVQSGAEVKKPGASVKVSCKASGYTFTDYFMKWVRQAPGQGLEWMGVINPNQGDIFYNQKFKGRVTMTVDKSISTAYMELSRLRSDDTAVYYCARGTDRALFAYWGQGTLVTVSS
VL: DVVMTQSPLSLPVTLGQPASISCRSGQSIVHSDGNTYLEWYQQRPGQSPRLLIYKVSNRFSGVPDRFSGSGSGTDFTLKISRVEAEDLGVYYCFQGSHIPWTFGGGTKVEIKR
B5: binds [12]; no binding (tested: 100 nM) [5].

B6: PR302341-55 (antibody, human IgG1, kappa, V domains shown)
VH: QVQLVQSGAEVKKPGASVKVSCKASGYTFTDYFMKWVRQAPGQRLEWMGVINPNNADIFYNQKFKGRVTITRDTSASTAYMELSSLRSEDTAVYYCARGTDRALFAYWGQGTLVTVSS
VL: DVVMTQSPLSLPVTLGQPASISCRSGQSIVHSDGNTYLEWYQQRPGQSPRLLIYKVSNRFSGVPDRFSGSGSGTDFTLKISRVEAEDLGVYYCFQGSHIPWTFGGGTKVEIKR
B6: binds [12]; no binding (tested: 100 nM) [5].

B7: PR302309-11 (antibody, human IgG1, kappa, V domains shown)
VH: QIQLVQSGSELKKPGASVKVSCKASGYTFTNYGMNWVRQAPGQGLEWMGWINTYTGEPIYTDDFKGRFVFSLDTSVSTAYLQISSLKAEDTAVYYCSRSTMITTGGVFAYWGQGTLVTVSS
VL: DIVMTQTPLSSPVTLGQPASISCRSSQTIVHSDGNTYLEWLQQRPGQPPRLLIYKVSNRFSGVPDRFSGSGAGTDFTLKISRVEAEDVGVYYCFQGSHVPWTFGGGTKVEIKR
For B7, the “EC50 (read off the curve)” value [1] was about 400 pM, the “EC50 (read off the curve)” value (biotinylated CRH [2]) was about 30 pM and the “hCRHR1-Luc 0.5 nM CRH IC50” value [13] was 2120 pM. B7: no binding (tested: 100 nM) [4]; no binding (tested: 100 nM) [5]; no binding (tested: 100 nM) [6]. The “EC50 (read off the curve)” value (biotinylated CRH [7]) was about 30 pM, the EC50 [8] was 28 pM and the binding result [9] was “no binding (tested: 100 nM)”. The “EC50 (read off the curve)” value [10] was about 70 pM and the binding result [11] was “no binding (tested: 100 nM)”.

B8: PR302309-18 (antibody, human IgG1, kappa, V domains shown)
VH: QVQLVQSGAEVKKPGASVKVSCKASGYTFTNYGMNWVRQAPGQRLEWMGWINTYTGEPIYTDDFKGRVTITRDTSASTAYMELSSLRSEDTAVYYCARSTMITTGGVFAYWGQGTLVTVSS
VL: DVVMTQSPLSLPVTLGQPASISCRSSQTIVHSDGNTYLEWYQQRPGQSPRLLIYKVSNRFSGVPDRFSGSGSGTDFTLKISRVEAEDLGVYYCFQGSHVPWTFGGGTKVEIKR
With B8 the “EC50 (read off the curve)” value (biotinylated CRH [2]) was about 30 pM, the “hCRHR1-Luc 0.5 nM CRH IC50” value [13] was 1730 pM and the binding result [4] was “no binding (tested: 100 nM)”. For the same binder, the binding result [5] was “no binding (tested: 100 nM)”, the binding result [6] was “no binding (tested: 100 nM)” and the “EC50 (read off the curve)” value (biotinylated CRH [7]) was about 30 pM. For the same binder, the EC50 [8] was 28 pM, the binding result [9] was “no binding (tested: 100 nM)” and the “EC50 (read off the curve)” value [10] was about 100 pM. B8: no binding (tested: 100 nM) [11].

B9: PR302335 (antibody, human IgG1, kappa, V domains shown)
VH: DVQLVESGGGLVQPGGSRKLSCAASGFTFSSFGMHWVRQAPEKGLEWVAYISSGSTIFYYADTVKGRFTISRDNPKNTLFLQMTSLRSEDTAMYYCARDITTATFAFWGQGTLVTVSA
VL: DVVLTQTPLSLPVSLGDQVSISCRSSQNLLHNNGNTYLHWYLQKPGQSPRLLIYKVSNRFSGVPDRFSGSGSGTDFTLKITRVEAEDLGVYFCSQSTHIPWTFGGGTKLEIKR
B9: binds (biotinylated CRH [14]).
